“And” between values parts separate entries of the source, which are not always exact repeats. Equal entries are not always repeated. Where two headings read alike, the source gives them in different places. Marks after values point to notes of the source that are not given here.

For data set [1], the system named is CD40 signal transduction in 293T-NF-κB-Luc-CD40 cells. The experiment in a line: Cell-based reporter assay. The arrangement: species or system human. The note with it: in words, FIGS. 2A-2C and 7. From the text:
The agonistic activity of the anti-CD40 antibody of the present application was further determined in a CD40 expression reporter cell line 293T-NF-κB-Luc-CD40, which stably expresses full-length human CD40 (uniprot No. P25942-1, SEQ ID NO: 30). According to the instructions of lipofectamine 3000 transfection reagent (Thermo Fisher), a pGL4.32 [luc2P NF-κB-RE Hygro] vector (Promega, GenBank® Accession No. EU581860) and a pCMV-T-P plasmid (with a CD40 coding sequence inserted between the EcoRI and Khal loci) were transfected into 293T cells in sequence to prepare 293T-NF-κB-Luc-CD40 cells.
Briefly, 293T-NF-κB-Luc-CD40 cells at the log phase were resuspended in DMEM medium (Gibco Inc., Cat. No. 10566-016) containing 10% of FBS (Gibco Inc., Cat. No. 10099-141), and seeded on a 384-well plate (Corning, Cat. No. 3707) at 20 μL/well (containing 5×10^3 cells). Then, the anti-CD40 antibody of the present application or the controls (including an in-house prepared anti-CD22 antibody as a negative control) serially 3-fold diluted from 200 nM in the medium was added at 20 μL per well and incubated at 37° C. for 6 h. […] The chemiluminescence values were measured using Tecan Infinit® 200 Pro. Data were analyzed using Graphpad Prism software, and EC50 values were obtained.
On the technique in general: Reporter assays use an easily measured gene product as a stand-in for the process of interest.

In the next data set the target is T1, Human CD40-his (Homo sapiens, UniProt P25942).
T1 construct: His; purchased Acro biosystems CD0-H5228
T1 sequence (P25942 21-277): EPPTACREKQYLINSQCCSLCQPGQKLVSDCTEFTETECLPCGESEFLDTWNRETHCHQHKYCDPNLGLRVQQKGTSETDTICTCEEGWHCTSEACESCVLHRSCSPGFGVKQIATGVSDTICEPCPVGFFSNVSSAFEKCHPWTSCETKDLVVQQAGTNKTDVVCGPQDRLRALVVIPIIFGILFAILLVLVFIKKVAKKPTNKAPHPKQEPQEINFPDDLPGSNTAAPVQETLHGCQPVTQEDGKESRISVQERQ
The experiment in a line: Biacore surface plasmon resonance affinity and binding kinetics. The note with it: Table 5, Biacore; for Ka: purified antibodies. The source says: (§1) The affinity and binding kinetics of the anti-CD40 antibody in the present application were characterized by a Biacore T200 system (GE Healthcare, Pittsburgh, PA, USA).
(§2) Briefly, a goat anti-human IgG (GE Healthcare, Cat. No. BR100839, human antibody capture kit) was covalently linked to a CM5 chip (GE Healthcare, Cat. No. BR100530, carboxymethylated dextran-coated chip) via the primary amine group using a standard amine coupling kit supplied by Biacore (GE Healthcare, Pittsburgh, PA, USA). Unreacted portions on the biosensor surface were blocked with ethanolamine. Then, the anti-CD40 antibody of the present application and two benchmark antibodies (BM1 (dacetuzumab, Genentech Inc., also referred to CD40-BM1, prepared in-house; the heavy and light chain amino acid sequences are set forth in SEQ ID NOs: 40 and 41, respectively) and BM2 (selicrelumab, Abgenix Inc., also referred to CD40-BM2, prepared in-house; the heavy and light chain amino acid sequences are set forth in SEQ ID NOS: 42 and 43, respectively)) at a concentration of 66.67 nM were directed through the chip at a flow rate of 10 μL/min. Then, serially diluted recombinant human CD40-his (Acro biosystems, Cat. No. CD0-H5228, serially 2-fold diluted from 80 nM in HBS-EP^+ buffer (supplied by Biacore)) or cynomolgus monkey CD40-his protein (Acro biosystems, Cat. No. CD0-C52H6, serially 2-fold diluted from 80 nM in HBS-EP^+ buffer (supplied by Biacore)) was directed through the chip at a flow rate of 30 μL/min. The antigen-antibody binding kinetics was tracked for 2 min and the dissociation kinetics was tracked for 10 min. The association and dissociation curves were fitted to a 1:1 Langmuir binding model using BIAcore evaluation software. KD, Ka, and Kd values were determined.
On the technique in general: In SPR one partner is held on a chip, and binding of the other changes the refractive index at the surface.

The target of data set [2] is Cynomolgus monkey CD40-his. The description is as above. The note with it: Table 5, Biacore; for Ka: purified antibodies.
Excerpt: as §1, §2

Data set [3] relates to human B-cell lymphoma Ramos cells. In words: In vivo anti-tumor efficacy, human B-cell lymphoma Ramos xenograft model. The note with it: for Tumor volume on day 0: baseline at grouping; for Tumor volume on day 0 / Tumor volume on day 14: mean ± standard error; for TGI: day 14; for T/C: day 14 vs isotype control. As to the method: The in vivo anti-tumor activity of antibody huC1H1-V2 was measured in NOD-SCID mice. Briefly, 3×10^7 human B-cell lymphoma Ramos cells (Chinese Academy of Sciences) were injected subcutaneously in the right axilla of NOD-SCID mice. The tumor volume was measured using an electronic vernier caliper and calculated according to the formula (length×width^2)/2. When the mean tumor volume reached about 100-150 mm^3, 40 tumor-bearing mice were selected and randomly divided into 4 groups (10 mice per group), with the date of grouping designated as day 0. According to the administration regimen shown in Table 6, the mice were intravenously administered with the isotype control antibody (anti-HEL-Human IgG2 Isotype-control, also referred to as IgG2, Biointron Inc.) or antibody huC1H1-V2 via tail veins since day 0.
For orientation: Xenograft models place foreign cells or tissue in a host animal.

Data set [4] in a line: Protein thermal shift assay (GloMelt). In kind it is physicochemical. The note with it: 25-99 °C melt curve. How it is done: A thermal stability assay was also conducted on humanized antibody huC1H1-V2. Tm (melting temperature) was determined by protein thermal shift assay using the GloMelt™ thermal shift protein stability kit (Biotium, Cat. No. 33022-T). Briefly, the GloMelt™ dye was thawed to room temperature. The vial containing the dye was vortexed and centrifuged. Then, 5 μL of the 200× dye solution was added to 95 μL of PBS to prepare a 10× dye solution. 2 μL of the 10× dye solution and 10 μg of the humanized antibody were added to the reaction system, and PBS was added to bring the total reaction volume to 20 μL. The centrifuge tubes containing the dye and the antibodies were centrifuged briefly and placed in a real-time PCR thermal cycler (Roche, LightCycler 480 II) in which the parameters of the Melt Curve program are shown in Table 4.

B1: huC1H1-V1: humanized C1H1 anti-CD40 antibody, VH SEQ ID NO: 20 X1=A, VL SEQ ID NO: 24 X1=K X2=F, human IgG2/κ (antibody, V domains shown)
VH: EVQLVESGGGLVKPGGSLRLSCAASGFTFSNYGISWVRQAPGKGLEWVXSISSGGDNTYYPDNVKGRFTISRDNAKNSLYLQMNSLRAEDTAVYYCARAGEKAMDYWGQGTLVTVSS
VL: EIVLTQSPATLSLSPGERATLSCRASQTINNNLHWYQQKPGQAPRLLIXYASQSISGIPARFSGSGSGTDFTLTISSLEPEDFAVYXCQQFSSWPLTFGGGTKVEIK
modifications: not fully specified; human IgG2/kappa constant regions; VH of huC1H1-V1 to huC1H1-V4; VARIANT 49 X can be A or S; VL of huC1H1-V1 to huC1H1-V4; VARIANT 49 X can be K or Y; VARIANT 87 X can be F or Y
In the case of B1, the “Agonistic activity (activation of CD40 signal transduction)” value in data set [1] was “higher than those of BM1 and BM2”. Moreover, the Kd with Human CD40-his (dissociation rate) was determined as 0.00248 s⁻¹; with Human CD40-his (read-out: KD), 1.1 nM; in data set [2] (dissociation rate), 0.002371 s⁻¹; in data set [2] (read-out: KD) it was 1.11 nM. Moreover, the Ka in the data set with Human CD40-his came to 2.25e+06 M⁻¹ s⁻¹; in data set [2], 2.14e+06 M⁻¹ s⁻¹.

B2: huC1H1-V2: humanized C1H1 anti-CD40 antibody, VH SEQ ID NO: 20 X1=S, VL SEQ ID NO: 24 X1=K X2=F, human IgG2/κ (antibody, V domains shown)
VH: B1 VH
VL: B1 VL
modifications: not fully specified; variable positions X1=S; VL X1=K X2=F; IgG2/kappa constant; VH of huC1H1-V1 to huC1H1-V4; VARIANT 49 X can be A or S; VL of huC1H1-V1 to huC1H1-V4; VARIANT 49 X can be K or Y; VARIANT 87 X can be F or Y
As a reminder, the TGI is how far tumour growth fell short of that in controls. The T/C is the result in the treated group divided by that in the control group, in per cent. As for B2, the “Tumor volume on day 0” value in data set [3] (1.5 mg/kg i.v. Q2D × 8 doses) is reported as 111.1 ± 2.0 mm^3; in data set [3] (5 mg/kg i.v. Q2D × 8 doses), 114.5 ± 1.5 mm^3; in data set [3] (15 mg/kg i.v. Q2D × 8 doses), 114.3 ± 1.3 mm^3. Also, the “Tumor volume on day 14” value in data set [3] (1.5 mg/kg i.v. Q2D × 8 doses) was 431.9 ± 58.0*** mm^3; in data set [3] (5 mg/kg i.v. Q2D × 8 doses), 230.2 mm^3 and 230.2 ± 36.3*** mm^3; in data set [3] (15 mg/kg i.v. Q2D × 8 doses), 242.5 ± 22.1*** mm^3. Also, the inhibition of tumour growth (TGI) in data set [3] (1.5 mg/kg i.v. Q2D) is on record as 88%; in data set [3] (5 mg/kg i.v. Q2D) it was 96%; in data set [3] (15 mg/kg i.v. Q2D), 95%. Moreover, the T/C in data set [3] (1.5 mg/kg i.v. Q2D) came to 12%; in data set [3] (5 mg/kg i.v. Q2D), 4%; in data set [3] (15 mg/kg i.v. Q2D), 5%. In addition, in data set [3] (1.5, 5, 15 mg/kg i.v. Q2D × 8 doses, tumor-bearing mice), the “Tolerability (weight loss or other symptoms)” value is reported as “well tolerated”. For the same molecule, the “Agonistic activity (activation of CD40 signal transduction)” value in data set [1] was “higher than those of BM1 and BM2”. In addition, the “Tm (melting temperature)” value in data set [4] was determined as 70 °C. In addition, the Kd with Human CD40-his (dissociation rate) was found to be 0.002704 s⁻¹; in the data set with Human CD40-his (read-out: KD) it was 1.17 nM; in data set [2] (dissociation rate), 0.002735 s⁻¹; in data set [2] (read-out: KD), 1.07 nM. In addition, the Ka with Human CD40-his was 2.31e+06 M⁻¹ s⁻¹; in data set [2] it was 2.56e+06 M⁻¹ s⁻¹.

(Values after patent US20240398942A1, “USE OF ANTI-CD40 ANTIBODY” (CHIA TAI TIANQING PHARMACEUTICAL GROUP CO., LTD., priority 2021, published 2024).)
